*1 amine or outer side, *2 acyl side, *3 side chain or, on linkers, in order; H or OH if unused. Bridges are numbered along the chain shown (N, C = ends). Where no end group is shown, it is not given here. [ ]: non-standard residue; d: D form. Als = 5-aminolevulinic acid, O=C(CCC(=O)[*:2])CN[*:1]
T1: erythropoietin receptor (UniProt P19235 25-508, limits assumed)
T1 sequence (looked up): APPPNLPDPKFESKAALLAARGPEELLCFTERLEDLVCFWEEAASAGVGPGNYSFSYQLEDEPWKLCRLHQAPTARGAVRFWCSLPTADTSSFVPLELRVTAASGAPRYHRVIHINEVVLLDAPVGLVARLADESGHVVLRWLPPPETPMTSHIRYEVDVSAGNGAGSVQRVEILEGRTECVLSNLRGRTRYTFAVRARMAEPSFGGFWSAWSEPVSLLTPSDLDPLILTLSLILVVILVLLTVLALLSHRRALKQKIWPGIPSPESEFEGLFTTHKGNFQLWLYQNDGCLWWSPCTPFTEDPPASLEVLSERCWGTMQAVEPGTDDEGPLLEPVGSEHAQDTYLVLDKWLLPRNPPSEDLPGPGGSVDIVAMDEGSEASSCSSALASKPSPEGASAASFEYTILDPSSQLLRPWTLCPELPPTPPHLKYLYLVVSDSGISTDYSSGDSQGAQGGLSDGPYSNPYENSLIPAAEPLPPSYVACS


What follows are binders tested against T1, erythropoietin receptor (assay: cell-based or functional assay).

EC50, proliferation assay with TF-1 cells by MTT [µM]	Binder
5.16	GGTYSCHFGRLTWVCKPQGG (disulfide 6-15 (inferred)) [peptide SEQ. ID NO. 5 GGTYSCHFGRLTWVCKPQGG]
4.97	GGTYSCHFGRLTWVCKKQGG (disulfide 6-15 (inferred)) [peptide SEQ. ID NO. 6 GGTYSCHFGRLTWVCKKQGG]
2.52	GGTYSCHFGPLTWVCKKQGG (disulfide 6-15 (inferred)) [peptide GGTYSCHFGPLTWVCKKQGG]
4.66	GGTYSCHFGKLTWVCKPQGG (disulfide 6-15 (inferred)) [peptide SEQ. ID NO. 4 GGTYSCHFGKLTWVCKPQGG]
3.28	GGTYSCHFGKLTWVCKKQGG (disulfide 6-15 (inferred)) [peptide SEQ. ID NO. 2 GGTYSCHFGKLTWVCKKQGG]
5.04	GGTYSCHFAKLTWVCKKQGG (disulfide 6-15 (inferred)) [peptide GGTYSCHFAKLTWVCKKQGG]
5.26	GGTYSCHF[Als]LTWVCKPQGG (disulfide 6-14 (inferred)) [peptide SEQ. ID NO. 7 GGTYSCHF-(Als)-LTWVCKPQGG]
5	GGTYSCHF[Als]LTWVCKKQGG (disulfide 6-14 (inferred)) [peptide SEQ. ID NO. 8 GGTYSCHF-(Als)-LTWVCKKQGG]

Source: patent publication US20060128618A1 (APLAGEN, published 2006)
